Measured values reported in patent publication US20180251563A1 (SUBDOMAIN, published 2018).

B1: SEQ ID NO 184 (designed binder)
chain: MGSWYEFDDRLNAIHDRLQALGGSEAELAAFEKEIAAFESELQAYKGKGNPEVEDLRDDAAFIRRFLQAYRHN
notes: also called pb06
B2: SEQ ID NO 186 (designed binder)
chain: MGSWTEFEQRLEAIHNRLQALGGSEAELAAFEKEIAAFESELQAYKGKGNPEVEELRNDAAFIRHFLQAYRHN
B3: SEQ ID NO 181 (designed binder)
chain: MGSWNEFHDRLNAIHARLHALGGSEAELAAFEKEIAAFESELQAYKGKGNPEVENLRDDAAFIRRFLQAYRHN
B4: SEQ ID NO 183 (designed binder)
chain: MGSWKEFDDRLNAIKARLQALGGSEAELAAFEKEIAAFESELQAYKGKGNPEVEDLRDDAAFIRRFLQAYRHN
B5: SEQ ID NO 185 (designed binder)
chain: MGSWNEFKNRLDAIHKRLNALGGSEAELAAFEKEIAAFESELQAYKGKGNPEVENLRDDAAFIRHFLQAYRHN
B6: SEQ ID NO 58 (designed binder)
chain: MGSWAEFKQRLAAIKTRLEALGGSEAELAAFLGEIWAFEMELAAYKGKGNPEVEALGREAAAIRMELQAYRHNGGGGSHHHHHH
notes: E. coli, IMAC and HPLC purified; also called His-fusion of bb10
B7: SEQ ID NO 53 (designed binder)
chain: MGSWYEFRHRLWAIDQRLYALGGSEAELAAFEKEIAAFESELQAYKGKGNPEVEGLREAAAFIRAKLQAYRHNGGGGSHHHHHH
notes: E. coli, IMAC and HPLC purified
B8: SEQ ID NO 52 (designed binder)
chain: MGSWVEFANRLWAIDQRLFALGGSEAELAAFEKEIAAFESELQAYKGKGNPEVEHLRDQAAFIRHKLQAYRHNGGGGSHHHHHH
notes: as for B7
B9: SEQ ID NO 57 (designed binder)
chain: MGSWYEFHYRLHAIDQRLYALGGSEAELAAFEKEIAAFESELQAYKGKGNPEVEELRIKAAFIRDRLQAYRHNGGGGSHHHHHH
notes: as for B7
B10: SEQ ID NO 55 (designed binder)
chain: MGSWFEFNHRLWAINERLYALGGSEAELAAFEKEIAAFESELQAYKGKGNPEVERLRSMAAFIRYKLQAYRHNGGGGSHHHHHH
notes: as for B7
B11: SEQ ID NO 51 (designed binder)
chain: MGSWVEFGHRLWAIDQRLYALGGSEAELAAFEKEIAAFESELQAYKGKGNPEVEKLRQRAAFIRFRLQAYRHNGGGGSHHHHHH
notes: as for B7
B12: SEQ ID NO 54 (designed binder)
chain: MGSWYEFSMRLWAIDQRLYALGGSEAELAAFEKEIAAFESELQAYKGKGNPEVEALRAKAAYIRWKLQAYRHNGGGGSHHHHHH
notes: as for B7
B13: SEQ ID NO 56 (designed binder)
chain: MGSWYEFGHRLWAIDQRLYALGGSEAELAAFEKEIAAFESELQAYKGKGNPEVEYLRETAAHIRTRLQAYRHNGGGGSHHHHHH
notes: as for B7
B14: SEQ ID NO 32 (designed binder)
chain: MGSWIYFKEHLAYIKKELEALGGSEAELAHFESAIAVFESTLQYYKGKGNPEVEALRKEAAAIRDELQAYRHN
B15: SEQ ID NO 44 (designed binder)
chain: MGSWFEFENRLHAIVHRLGALGGSEAELAAFEKEIAAFESELQAYKGKGNPEVETLRADAAFIRHYLQAYRHN
B16: SEQ ID NO 38 (designed binder)
chain: MGSWTEFQSRLDAIHSRLRALGGSEAELAAFEKEIAAFESELQAYKGKGNPEVELLRDDAAFIRHFLQAYRHN
B17: SEQ ID NO 41 (designed binder)
chain: MGSWFEFQDRLTAINERLSALGGSEAELAAFEKEIAAFESELQAYKGKGNPEVETLRSDAAFIRRFLQAYRHN
B18: SEQ ID NO 39 (designed binder)
chain: MGSWQEFDDRLNAIKARLQALGGSEAELAAFEKEIAAFESELQAYKGKGNPEVEDLRDDAAFIRRFLQAYRHN
B19: SEQ ID NO 40 (designed binder)
chain: MGSWYEFQNRLHAIHERLNALGGSEAELAAFEKEIAAFESELQAYKGKGNPEVELLRDDAAFIRHFLQAYRHN
B20: SEQ ID NO 43 (designed binder)
chain: MGSWYEFNHRLDAISKRLNALGGSEAELAAFEKEIAAFESELQAYKGKGNPEVEELRGDAAFIRHFLQAYRHN
B21: SEQ ID NO 42 (designed binder)
chain: MGSWYEFESRLDAIHERLHALGGSEAELAAFEKEIAAFESELQAYKGKGNPEVENLRGDAAFIRHFLQAYRHN
B22: SEQ ID NO 14 (designed binder)
chain: MGSWYEFRHRLWAIDQRLYALGGSEAELAAFEKEIAAFESELQAYKGKGNPEVEGLREAAAFIRAKLQAYRHN
B23: SEQ ID NO 16 (designed binder)
chain: MGSWFEFNHRLWAINERLYALGGSEAELAAFEKEIAAFESELQAYKGKGNPEVERLRSMAAFIRYKLQAYRHN
B24: SEQ ID NO 13 (designed binder)
chain: MGSWVEFANRLWAIDQRLFALGGSEAELAAFEKEIAAFESELQAYKGKGNPEVEHLRDQAAFIRHKLQAYRHN
B25: SEQ ID NO 18 (designed binder)
chain: MGSWYEFHYRLHAIDQRLYALGGSEAELAAFEKEIAAFESELQAYKGKGNPEVEELRIKAAFIRDRLQAYRHN
B26: SEQ ID NO 17 (designed binder)
chain: MGSWYEFGHRLWAIDQRLYALGGSEAELAAFEKEIAAFESELQAYKGKGNPEVEYLRETAAHIRTRLQAYRHN
B27: SEQ ID NO 12 (designed binder)
chain: MGSWVEFGHRLWAIDQRLYALGGSEAELAAFEKEIAAFESELQAYKGKGNPEVEKLRQRAAFIRFRLQAYRHN
B28: SEQ ID NO 15 (designed binder)
chain: MGSWYEFSMRLWAIDQRLYALGGSEAELAAFEKEIAAFESELQAYKGKGNPEVEALRAKAAYIRWKLQAYRHN
B29: SEQ ID NO 20 (designed binder)
chain: MGSWYEFDLRLHAIYDRLVALGGSEAELAAFEKEIAAFESELQAYKGKGNPEVEILRDNAAYIRQMLQAYRHN
B30: SEQ ID NO 22 (designed binder)
chain: MGSWAEFDHRLHAIRERLHALGGSEAELAAFEKEIAAFESELQAYKGKGNPEVEILRGNAAYIRALLQAYRHN
B31: SEQ ID NO 21 (designed binder)
chain: MGSWTEFTYRLSAIEWRLWALGGSEAELAWFEQKIAFFEDFLQYYKGKGNPEVEALKHEAGAILNELMAYRHN

Each binder was assayed against PD-L1 (target of Example 25) (UniProt Q9NZQ7 19-238, limits assumed) (assay: library selection; assay not described).
PD-L1 (target of Example 25), sequence (Q9NZQ7 19-238 limits assumed): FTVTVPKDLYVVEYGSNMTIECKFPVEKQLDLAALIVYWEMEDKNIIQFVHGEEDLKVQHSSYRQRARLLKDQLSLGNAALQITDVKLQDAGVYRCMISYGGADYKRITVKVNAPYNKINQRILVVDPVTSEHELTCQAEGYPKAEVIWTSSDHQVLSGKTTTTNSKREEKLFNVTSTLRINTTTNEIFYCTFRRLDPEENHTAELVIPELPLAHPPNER

Q: Does B1 bind?
A: binds

Q: Does B2 bind?
A: binds

Q: Does B3 bind?
A: binds

Q: Does B4 bind?
A: binds

Q: Does B5 bind?
A: binds

These binders were tested against T1, CD137-Fc-His6 fusion protein (assay: biolayer interferometry (ForteBio), CD137-Fc-His6 immobilized via protein A, steady state fit).
T1 construct: Made in HEK293 cells, IMAC purified; also called CD137 target protein
Procedure: The binding of the eight his-tagged DBDpp ligands (SEQ ID NO:51-58) to the CD137 target protein was assessed using biolayer interferometry (ForteBio, Menlo Park, Calif.) according to established methods. The binding assay was constructed by immobilizing the CD137-Fc-His6 via protein A and then incubating in solutions of each of the DBDpp ligands for 5 minutes to measure the association (binding) phase. The sensors were then placed in buffer to monitor the dissociation phase and the complete sensorgrams (time in seconds on the X-axis and nm on the Y-axis) are shown in FIGS. 12A, 12C, 12E, 12G, 12I, 12K, 12M, and 12O for DBDpps of SEQ ID Nos: 51-58, respectively. The data was fitted by steady state analysis, which is depicted in each of FIGS. […], 12F, 12H, 12J, 12L, 12N, and 12P for the corresponding DBDpp.

Q: For B6, which Kd is on record?
A: 1700 nM

Q: How did the Kd turn out when B7 was run?
A: 140 nM

Q: With B8 as the binder, how does the Kd read?
A: 460 nM

Q: Which Kd does the source give for B9 here?
A: 1000 nM

Q: For B10, which Kd is on record?
A: 170 nM

Q: With B11 as the binder, how does the Kd read?
A: 640 nM

Q: With B12 as the binder, how does the Kd read?
A: 400 nM

Q: With B13 as the binder, how does the Kd read?
A: 770 nM

Each binder was assayed against T2, DR5-Fc (UniProt O14763 56-182, limits assumed) (assay: phage ELISA, target-Fc against non-specific control).
T2 construct: purified recombinant target-Fc protein; not shown: Fc
T2 sequence (O14763 56-182 limits assumed): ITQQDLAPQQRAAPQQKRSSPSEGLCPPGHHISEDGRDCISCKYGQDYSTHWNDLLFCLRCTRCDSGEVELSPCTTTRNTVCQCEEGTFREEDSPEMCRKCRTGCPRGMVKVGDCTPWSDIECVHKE
Procedure: (§1) Selections were also performed using F1, F2, F3, C1 & C2 trinucleotide phosphoramidite libraries. In most cases, libraries were pooled prior to use in selection. By combining equal volumes of the individual libraries, Pool F (libraries F1, F2 and F3) and Pool C (libraries C1 and C2) were generated. These libraries were used in selections for DBDpp binders to 4-1BB/CD137 as well as a larger panel of purified recombinant “target”-Fc proteins, including CD47, CTLA4, DR5, KIR, LAG3, OX40, PD1, PD-L1 and TIM3. (Many of these targets are considered immuno-regulatory factors (Pardoll et al., Nat. Rev. Cancer 12:252-264 (2012)). After incubation of the target with the pools of DBDpp phage libraries, bound phage-target complexes were captured and separated from unbound phage with protein A beads (target proteins were Fc fusions). After three rounds of selection, rescued phage clones were screened by ELISA for binding to the selected target.
(§2) For each target, approximately 90 DBDpp phage clones were screened by ELISA for binding to the target protein and as well as a non-specific control (e.g., IgG1-Fc). […] In some instances, for the ELISA screening plate in which the majority of DBDpp clones were positive, the entire plate was sequenced.

Q: B14 was tested. Which “ELISA ratio (target to background)” value did it give?
A: 10.7 ratio

Each binder was assayed against T3, PD-L1-Fc (UniProt Q9NZQ7 19-238) in the same assay as above.
T3 construct: purified recombinant target-Fc protein; also called FC-PD-L1; not shown: Fc
T3 sequence (Q9NZQ7 19-238 limits assumed): as the sequence (Q9NZQ7 19-238 limits assumed) above
Procedure: as §1, §2

Q: For B15, which “ELISA ratio (target to background)” value is on record?
A: 2.76 ratio

Q: Which “ELISA ratio (target to background)” value does the source give for B16 here?
A: 8.68 ratio

Q: For B17, which “ELISA ratio (target to background)” value is on record?
A: 6.01 ratio

Q: B18 was tested. Which “ELISA ratio (target to background)” value did it give?
A: 7.41 ratio

Q: B19 was tested. Which “ELISA ratio (target to background)” value did it give?
A: 6.34 ratio

Q: With B20 as the binder, how does the “ELISA ratio (target to background)” value read?
A: 2.98 ratio

Q: Which “ELISA ratio (target to background)” value does the source give for B21 here?
A: 4.88 ratio

The binders below were run against T4, recombinant, biotinylated, Human 4-1BB/TNFRSF9/CD137-Fc (human, UniProt Q07011 24-186, biotinylated (F2NNK selection)) in the same assay as above.
T4 construct: also called 4-1BB/CD137; not shown: Fc
T4 sequence (Q07011 24-186 limits assumed): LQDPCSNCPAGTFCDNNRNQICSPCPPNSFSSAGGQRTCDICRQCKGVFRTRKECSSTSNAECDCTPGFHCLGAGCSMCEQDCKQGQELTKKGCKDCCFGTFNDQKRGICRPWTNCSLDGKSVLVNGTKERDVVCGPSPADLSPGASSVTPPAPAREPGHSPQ
Procedure: as §1, §2

Q: B22 was tested. Which “ELISA ratio (target to background)” value did it give?
A: 13 ratio

Q: For B23, which “ELISA ratio (target to background)” value is on record?
A: 11.9 ratio

Q: With B24 as the binder, how does the “ELISA ratio (target to background)” value read?
A: 16.1 ratio

Q: With B25 as the binder, how does the “ELISA ratio (target to background)” value read?
A: 7.26 ratio

Q: B26 was tested. Which “ELISA ratio (target to background)” value did it give?
A: 7.71 ratio

Q: Which “ELISA ratio (target to background)” value does the source give for B27 here?
A: 20.6 ratio

Q: Which “ELISA ratio (target to background)” value does the source give for B28 here?
A: 12 ratio

What follows are binders tested against T5, CD47-Fc (UniProt Q08722 19-139) in the same assay as above.
T5 construct: purified recombinant target-Fc protein; not shown: Fc
T5 sequence (Q08722 19-139 limits assumed): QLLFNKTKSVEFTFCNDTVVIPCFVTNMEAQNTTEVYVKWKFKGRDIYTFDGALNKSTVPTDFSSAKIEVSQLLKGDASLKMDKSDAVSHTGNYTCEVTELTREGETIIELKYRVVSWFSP
Procedure: as §1, §2

Q: Which “ELISA ratio (target to background)” value does the source give for B29 here?
A: 14.1 ratio

Q: B30 was tested. Which “ELISA ratio (target to background)” value did it give?
A: 11.7 ratio

Q: With B31 as the binder, how does the “ELISA ratio (target to background)” value read?
A: 12.5 ratio
